Experimental data as given in paper doi:10.1101/2022.01.06.475303 (bioRxiv, 2022).

Biological target: SARS-CoV-2 receptor binding domain (RBD), Wuhan-1 (SARS-CoV-2 Wuhan-Hu-1, UniProt P0DTC2)
Assay: SPR

B1: eCC12.1.7 IgG (antibody, V domains shown)
VH: EVQLVESGGGLIQPGGSLRLSCAASGLTVSSNYMTWVRQAPGKGLEWVSVIYAGGSTFYADSVKGRFTISRDNSKNTLYLQMNSLRAEDTAVYYCARDLDVYGVDVWGQGTTVTVSS
VL: DIQLTQSPSFLSASVGDRVTITCRASQGISRYLAWYQQKPGKAPKLLIYAASTLQYGVPSRFSGSGSGTEFTLTISSLQPEDFATYYCQQLNSYPPKYTFGPGTKVEIK
  binding result: binds
